# Reference: patent US20220033485A1 (TEIJIN PHARMA, published 2022)
# Substitutions are numbered along the chain they refer to. Numbers in names are those of the source.
# B1: anti-IGF-I receptor humanized antibody R11-16B (antibody, human IgG4, V domains shown)
# VH: QVQLVQPGAELVKPGASVKVSCKAPGYTFTSYWMHWVRQAPGQGLEWIGETNPSNSVTNYNEKFKSKATLTVDTSTSTVYMELSSLRSEDTAVYYCTIGRGRGFAYWGQGTLVTVSS
# VL: DIQMTQSPSSLSASVGDRVTITCRASQNINFWLSWYQQKPGKAPKLLIYKASNLHTGVPSRFSGSGSGTDFTFTISSLQPEDIATYYCLQGQSYPYTFGQGTKLEIK
# notes: Heavy chain constant region: human IgG4 S228P variant; Expressed in Expi293, protein A purified; also called R11-16B antibody; R11-16VH + R11-16VL-C36Y
# B2: anti-IGF-I receptor humanized antibody R11-16E (antibody, human IgG4, V domains shown)
# VH: B1 VH
# VL: B1 VL with Y36F
# notes: also called R11-16E antibody; R11-16VH + R11-16VL-C36F
# B3: anti-IGF-I receptor humanized antibody R11-16F (antibody, human IgG4, V domains shown)
# VH: B1 VH
# VL: B1 VL with Y36C
# notes: also called R11-16F antibody; R11-16VH + R11-16VL-C36
# B4: anti-IGF-I receptor humanized antibody R11-16D (antibody, human IgG4, V domains shown)
# VH: B1 VH
# VL: B1 VL with Y36S
# notes: also called R11-16D antibody; R11-16VH + R11-16VL-C36S
# B5: anti-IGF-I receptor humanized antibody R11-16C (antibody, human IgG4, V domains shown)
# VH: B1 VH
# VL: B1 VL with Y36A
# notes: also called R11-16C antibody; R11-16VH + R11-16VL-C36A
# Target: T1, human IGF-I receptor (human, UniProt P08069 31-1367)
# Assay: cell-based or functional assay
# T1 sequence (P08069 31-1367 limits assumed): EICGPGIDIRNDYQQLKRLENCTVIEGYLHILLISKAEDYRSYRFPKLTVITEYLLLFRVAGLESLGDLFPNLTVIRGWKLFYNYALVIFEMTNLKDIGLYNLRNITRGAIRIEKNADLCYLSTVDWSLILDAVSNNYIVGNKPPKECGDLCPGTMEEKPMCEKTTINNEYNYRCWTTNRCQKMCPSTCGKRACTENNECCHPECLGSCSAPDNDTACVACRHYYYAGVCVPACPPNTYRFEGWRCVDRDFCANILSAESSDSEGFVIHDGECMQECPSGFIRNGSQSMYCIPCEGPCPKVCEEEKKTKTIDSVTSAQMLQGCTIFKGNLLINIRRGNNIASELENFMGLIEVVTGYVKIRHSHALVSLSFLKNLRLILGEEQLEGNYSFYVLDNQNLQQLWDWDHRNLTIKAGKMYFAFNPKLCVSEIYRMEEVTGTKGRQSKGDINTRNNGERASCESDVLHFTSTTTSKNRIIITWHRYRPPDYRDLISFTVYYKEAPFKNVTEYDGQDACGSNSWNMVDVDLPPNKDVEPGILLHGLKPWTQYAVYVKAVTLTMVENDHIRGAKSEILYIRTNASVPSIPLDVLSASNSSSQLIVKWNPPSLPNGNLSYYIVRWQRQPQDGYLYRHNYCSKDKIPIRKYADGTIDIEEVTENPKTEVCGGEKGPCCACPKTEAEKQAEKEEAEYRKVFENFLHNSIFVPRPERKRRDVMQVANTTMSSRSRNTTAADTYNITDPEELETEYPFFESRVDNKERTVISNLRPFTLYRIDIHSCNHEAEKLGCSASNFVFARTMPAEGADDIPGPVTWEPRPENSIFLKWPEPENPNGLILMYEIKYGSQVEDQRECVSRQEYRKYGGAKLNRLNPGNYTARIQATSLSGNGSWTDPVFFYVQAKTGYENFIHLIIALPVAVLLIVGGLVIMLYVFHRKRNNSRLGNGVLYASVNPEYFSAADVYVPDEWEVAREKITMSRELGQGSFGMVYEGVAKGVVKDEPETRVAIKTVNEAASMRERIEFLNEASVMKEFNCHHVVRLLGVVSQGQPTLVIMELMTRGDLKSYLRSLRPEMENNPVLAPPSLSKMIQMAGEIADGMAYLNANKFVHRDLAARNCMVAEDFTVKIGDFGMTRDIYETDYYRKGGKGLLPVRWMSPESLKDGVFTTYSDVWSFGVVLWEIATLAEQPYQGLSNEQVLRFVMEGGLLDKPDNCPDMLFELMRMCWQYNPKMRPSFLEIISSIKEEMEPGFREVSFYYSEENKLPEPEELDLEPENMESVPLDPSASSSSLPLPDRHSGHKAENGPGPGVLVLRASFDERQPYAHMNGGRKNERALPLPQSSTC
Binder,"Proliferation activity on human myoblast cells (%), 0.005 nM, Experiment 1","Proliferation activity on human myoblast cells (%), 0.005 nM, Experiment 2","Proliferation activity on human myoblast cells (%), 0.5 nM, Experiment 1","Proliferation activity on human myoblast cells (%), 0.5 nM, Experiment 2"
B1,147%,148%,164%,164%
B2,150%,143%,166%,164%
B3,146%,148%,161%,156%
B4,144%,149%,160%,169%
B5,150%,143%,178%,172%

# Target: T2, rat IGF-I receptor (rat, UniProt P24062 31-1370)
# T2 construct: Whole entry as named; expressed on HEK293T cells; also called IGF-I receptor of rat; NP_434694
# Assay: cell-based ELISA on HEK293T cells expressing the receptor
# Description: (§1) The HEK293T cells cultured for at least one night after the lipofection were added to a 96-well plate (coated with poly-D-lysine) in 4×10⁴ cells/well, and the plate further cultured for at least one night were used in the ELISA.
# (§2) In the ELISA, 2 nM humanized antibody solutions in 1% BSA/1% FBS/PBS (100 μL) were added to respective wells and reacted for about one hour at 37° C. The wells were washed three times with a cleaning solution. An HRP conjugate solutions (100 μL) of an anti-human IgG antibody prepared at various concentrations with 1% BSA/1% FBS/PBS was added to the respective wells and reacted for about one hour at 37° C. Each well was washed three times with a cleaning solution. A TMB substrate (100 μL) was added to each well to initiate the reaction. Approximately 30 minutes later, 1M sulfuric acid (100 μL) was added to each well to measure the absorbances at 450 nm and 650 nm and calculate the difference of the values between 450 nm and 650 nm.
# T2 sequence (P24062 31-1370 limits assumed): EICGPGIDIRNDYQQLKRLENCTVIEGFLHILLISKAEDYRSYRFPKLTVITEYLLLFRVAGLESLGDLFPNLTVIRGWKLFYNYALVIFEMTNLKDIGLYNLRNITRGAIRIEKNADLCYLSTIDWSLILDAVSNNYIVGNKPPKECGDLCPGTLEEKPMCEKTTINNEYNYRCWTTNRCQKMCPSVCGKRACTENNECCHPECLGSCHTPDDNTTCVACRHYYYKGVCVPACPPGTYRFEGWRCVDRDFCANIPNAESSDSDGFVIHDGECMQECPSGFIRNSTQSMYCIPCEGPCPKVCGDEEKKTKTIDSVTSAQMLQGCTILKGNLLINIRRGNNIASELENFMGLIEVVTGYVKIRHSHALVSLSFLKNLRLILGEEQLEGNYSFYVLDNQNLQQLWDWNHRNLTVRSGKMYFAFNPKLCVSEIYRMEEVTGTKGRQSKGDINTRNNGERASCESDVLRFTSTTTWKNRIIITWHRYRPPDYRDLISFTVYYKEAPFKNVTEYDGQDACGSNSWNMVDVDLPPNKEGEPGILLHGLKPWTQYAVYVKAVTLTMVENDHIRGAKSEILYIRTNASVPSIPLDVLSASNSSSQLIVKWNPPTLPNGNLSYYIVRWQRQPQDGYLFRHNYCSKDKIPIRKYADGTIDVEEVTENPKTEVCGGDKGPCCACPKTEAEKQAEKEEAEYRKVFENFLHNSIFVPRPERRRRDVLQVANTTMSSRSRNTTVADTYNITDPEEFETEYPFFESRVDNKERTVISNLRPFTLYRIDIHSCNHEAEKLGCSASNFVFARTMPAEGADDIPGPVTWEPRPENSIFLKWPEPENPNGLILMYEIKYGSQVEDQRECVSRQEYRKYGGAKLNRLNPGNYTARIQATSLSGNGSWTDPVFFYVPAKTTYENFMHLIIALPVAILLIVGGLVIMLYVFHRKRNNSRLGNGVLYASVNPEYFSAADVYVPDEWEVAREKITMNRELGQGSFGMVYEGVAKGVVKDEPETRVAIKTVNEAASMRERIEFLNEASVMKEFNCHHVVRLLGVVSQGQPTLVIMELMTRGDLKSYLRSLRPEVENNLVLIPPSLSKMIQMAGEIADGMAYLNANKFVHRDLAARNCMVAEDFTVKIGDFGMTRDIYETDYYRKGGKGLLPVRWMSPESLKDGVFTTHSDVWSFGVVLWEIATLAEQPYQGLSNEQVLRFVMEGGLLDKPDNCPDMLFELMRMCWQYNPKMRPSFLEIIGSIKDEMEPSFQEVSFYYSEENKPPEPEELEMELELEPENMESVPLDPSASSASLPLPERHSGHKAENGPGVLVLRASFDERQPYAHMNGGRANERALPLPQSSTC
row,Binder,binding result
1,B1,no binding (tested: 2 nM)
2,B2,no binding (tested: 2 nM)
3,B3,no binding (tested: 2 nM)
4,B4,no binding (tested: 2 nM)
5,B5,no binding (tested: 2 nM)

# Target: T1, human IGF-I receptor
# Assay: cell-based or functional assay
# Remark: another data set of the same source
row,Binder,EC50 of proliferation activity on human myoblast cells
1,B1,2 pM
2,B2,2 pM
3,B3,2 pM
4,B4,2 pM
5,B5,2 pM

# Target: T1, human IGF-I receptor
# Assay: cell-based ELISA, 2 nM antibody on HEK293T cells expressing the receptor, A450-A650
# Description: as §1, §2
row,Binder,Avidity (relative to control HEK293T cells = 1)
1,B1,3.4 fold of control cells
2,B2,3.7 fold of control cells
3,B3,3.4 fold of control cells
4,B4,3.4 fold of control cells
5,B5,3.4 fold of control cells

# Target: T2, rat IGF-I receptor
# Assay: as above
# Description: as §1, §2
row,Binder,Avidity (relative to control HEK293T cells = 1)
1,B1,0.8 fold of control cells
2,B2,0.8 fold of control cells
3,B3,0.9 fold of control cells
4,B4,0.9 fold of control cells
5,B5,0.9 fold of control cells

# Target: T3, cynomolgus monkey IGF-I receptor (cynomolgus monkey, UniProt P08069 31-1367 (human entry))
# T3 construct: Whole entry as named; expressed on HEK293T cells; also called IGF-I receptor of cynomolgus monkey; XP_005560575
# Assay: as above
# Description: as §1, §2
# T3 sequence (P08069 other isoform, or with tags, fused parts or gaps limits assumed): as the sequence (P08069 31-1367 limits assumed) above, with T188A, S471W, A729V, P738L, E1238D counted along it
row,Binder,Avidity (relative to control HEK293T cells = 1)
1,B1,3.3 fold of control cells
2,B2,3.7 fold of control cells
3,B3,3.3 fold of control cells
4,B4,3.4 fold of control cells
5,B5,3.3 fold of control cells

# Target: T4, guinea pig IGF-I receptor (guinea pig, UniProt P08069 31-1367 (human entry))
# T4 construct: Whole entry as named; expressed on HEK293T cells; also called IGF-I receptor of guinea pig; XP_003475316
# Assay: as above
# Description: as §1, §2
# T4 sequence (P08069 other isoform, or with tags, fused parts or gaps limits assumed): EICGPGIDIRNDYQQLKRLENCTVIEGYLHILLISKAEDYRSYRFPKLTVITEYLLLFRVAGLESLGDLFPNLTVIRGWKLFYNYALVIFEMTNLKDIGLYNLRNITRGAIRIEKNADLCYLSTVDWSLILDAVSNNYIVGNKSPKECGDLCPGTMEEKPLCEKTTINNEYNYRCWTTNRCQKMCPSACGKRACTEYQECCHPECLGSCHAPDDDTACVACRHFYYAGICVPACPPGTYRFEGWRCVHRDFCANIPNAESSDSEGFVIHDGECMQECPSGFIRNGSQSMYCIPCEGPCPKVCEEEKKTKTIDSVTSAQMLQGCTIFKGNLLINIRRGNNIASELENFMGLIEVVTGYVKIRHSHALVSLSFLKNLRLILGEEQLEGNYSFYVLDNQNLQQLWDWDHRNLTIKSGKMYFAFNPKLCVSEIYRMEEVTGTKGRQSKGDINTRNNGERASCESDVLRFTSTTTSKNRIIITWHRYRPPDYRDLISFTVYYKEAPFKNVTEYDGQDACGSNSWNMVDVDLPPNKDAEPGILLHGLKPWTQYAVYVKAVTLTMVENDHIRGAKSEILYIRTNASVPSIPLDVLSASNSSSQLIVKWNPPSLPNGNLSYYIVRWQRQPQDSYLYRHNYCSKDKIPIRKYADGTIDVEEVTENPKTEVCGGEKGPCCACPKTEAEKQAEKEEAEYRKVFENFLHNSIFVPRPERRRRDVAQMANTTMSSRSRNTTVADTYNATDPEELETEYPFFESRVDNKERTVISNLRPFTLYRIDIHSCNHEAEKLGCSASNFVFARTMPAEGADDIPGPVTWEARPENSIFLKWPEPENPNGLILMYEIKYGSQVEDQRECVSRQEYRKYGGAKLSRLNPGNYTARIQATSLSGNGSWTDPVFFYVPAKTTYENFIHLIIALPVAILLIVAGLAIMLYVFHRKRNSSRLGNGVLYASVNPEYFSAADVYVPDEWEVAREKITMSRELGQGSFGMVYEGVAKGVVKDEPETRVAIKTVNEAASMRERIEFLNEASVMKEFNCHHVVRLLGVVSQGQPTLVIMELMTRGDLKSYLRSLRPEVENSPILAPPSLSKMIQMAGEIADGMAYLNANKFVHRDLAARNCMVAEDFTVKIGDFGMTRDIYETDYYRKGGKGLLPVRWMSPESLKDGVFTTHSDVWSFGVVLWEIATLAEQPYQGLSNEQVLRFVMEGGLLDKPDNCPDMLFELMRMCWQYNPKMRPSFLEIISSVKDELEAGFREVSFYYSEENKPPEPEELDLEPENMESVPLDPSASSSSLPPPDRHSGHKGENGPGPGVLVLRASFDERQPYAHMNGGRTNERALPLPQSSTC
row,Binder,Avidity (relative to control HEK293T cells = 1)
1,B1,3.3 fold of control cells
2,B2,3.4 fold of control cells
3,B3,3.3 fold of control cells
4,B4,3.3 fold of control cells
5,B5,3.3 fold of control cells

# Target: T5, Substitute 2 of CR domain (human IGF-I receptor G315S, S316T, C-terminal FLAG tag) (human, UniProt P08069 31-1367)
# T5 construct: Expressed on 293T cells, formalin fixed; also called substitute 2 receptor
# Assay: cell-based ELISA on fixed 293T cells expressing the substitute receptor
# Description: (§3) 293T cells were seeded in 10-cm dishes coated with poly-D-lysine in 6×10⁶ cells. On the next day, each plasmid DNA was introduced into the cells by lipofection. Two days later, the 293T cells were released with 0.05% trypsin/EDTA and suspended in the culture medium. The 293T cells were added to a 96-well plate (coated with poly-D-lysine) in 2×10⁴ cells/well and incubated overnight at 37° C. under 5% CO₂. The medium was removed from the 96-well plate. The plate was fixed with 10% buffered formalin (Mildform® 10NM, Wako), replaced by a blocking buffer (3% BSA/PBS/0.02% sodium azide), and used for the ELISA.
# (§4) Each well was washed two times with a cleaning solution. A 2500-fold diluted solution of an anti-human IgG antibody ALP conjugate solution (2087-04, Southern Biotech) in the blocking buffer (50 μL) was added to each well and reacted for about one hour at room temperature. Each well was washed three times with a cleaning solution. A pNPP substrate (100 μL) was added to each well to initiate the reaction. The absorbances at 405 nm and 550 nm were measured after about one hour.
row,Binder,binding result
1,B1,no binding (tested: 5 nM)

# Target: T6, Substitute 1 of CR domain (human IGF-I receptor D245N, A247T, E294D, C-terminal FLAG tag) (human, UniProt P08069 31-1367)
# T6 construct: Expressed on 293T cells, formalin fixed; also called substitute 1 receptor
# Assay: cell-based ELISA, 5 nM R11-16B on fixed 293T cells expressing the FLAG-tagged receptor; Mock cells gave 0.328
# Description: as §3, §4
row,Binder,"Avidity (absorbance, R11-16B added minus not added)"
1,B1,0.885 absorbance

# Target: T7, wild-type human IGF-I receptor with C-terminal FLAG tag (human, UniProt P08069 31-1367)
# T7 construct: Expressed on 293T cells, formalin fixed; also called positive control
# Assay: as above
# Description: as §3, §4
row,Binder,"Avidity (absorbance, R11-16B added minus not added)"
1,B1,0.835 absorbance

# Target: T5, Substitute 2 of CR domain (human IGF-I …)
# Assay: as above
# Description: as §3, §4
row,Binder,"Avidity (absorbance, R11-16B added minus not added)"
1,B1,0.308 absorbance
